Test results reported in patent US20240336900A1, “METHODS AND COMPOSITIONS RELATED TO MODIFIED METHYLTRANSFERASES AND ENGINEERED BIOSENSORS” (BOARD OF REGENTS, THE UNIVERSITY OF TEXAS SYSTEM, priority 2023, published 2024).

What was measured:
[1] = Biosensor-linked O-methyltransferase activity assay; type: cell-based, Escherichia coli; conditions: single mutational designs; 25, 30, 37 °C; 100 uM, 1 mM norbelladine
Experimental: Nb4OMT was expressed with the P150-RBS (riboJ) promoter-RBS on the pReg-RamR plasmid backbone (no regulator present). Cells were co-transformed with both the 40MT plasmid and the 4NB reporter plasmid and plated on an LB agar plate containing appropriate antibiotics. Three individual colonies from each transformation were picked into LB and grown overnight. Resulting cultures were diluted 50-fold into 1 ml LB medium containing the indicated concentration of norbelladine in a 96-deep-well plate and were grown at the indicated temperature for 24 h. Subsequently, the fluorescence of cultures was measured in the same manner as previously described in Dose-response measurement above.

[2] = Steady state kinetics of purified Nb4OMT variants; type: biochemical
Experimental: Reactions for kinetics measurements were performed in triplicate for all enzyme variants. For each variant 1.5 ml reactions containing 3.5 nM of enzyme, 500 μM SAM, 2 mM CaCl2), and 15.625, 31.25, 62.5, 125, 250, or 500 μM norbelladine in PBS pH 7.5 were incubated at 37° C. for 4 hours. Every hour a 200 μl aliquot of each reaction was quenched by pipetting it into a 1.5 ml microcentrifuge tube with 20 μl of 2M HCl. The concentration of 4′-O-Methylnorbelladine was then determined using HPLC as described.
Kinetic data were fit in KinTek Explorer simulation and data fitting software v11 (Roy, 2018). The following minimal model was used as an input. Each line represents a step in the model and the forward reaction goes from left to right while the reverse reaction goes from right to left as written. • (1) E+S=ES • (2) ES=EP • (3) EP=E+P • (4) S=P2
3.5 nM enzyme and 15.625, 31.25, 62.5, 125, 250, and 500 M substrate. The output observable was defined as EP+P. Substrate oxidation was modeled in step (4) as irreversible with a best fit value from globally fitting data from all variants to derive k4=0.00547 min^−1.To get kout/Km and kcat: k−1, k−2, and k−3 were locked at 0 min-1 (irreversible reactions). k+3 was locked at 10,000 min-1 as to not limit the rate of turnover. k+1 and k+2 were used as variable parameters in the fitting. Under these conditions, k+2=kcat and k+1=kcat/Km. For estimates of 95% confidence intervals on kinetic parameters, confidence contour analysis was used with the FitSpace function in KinTek Explorer (Bhattacharya, 2015). Confidence contour plots are calculated by systematically varying a single rate constant and holding it fixed at a particular value while refitting the data, allowing other rate constants to float. The goodness of fit was scored by the resulting χ^2 value. The confidence interval is defined based on a threshold in χ^2 calculated from the F-distribution based on the number of data points and number of variable parameters to give the 95% confidence limits. For the data given in FIGS. 20A-20C, this threshold was 0.85 to estimate the upper and lower limits for each parameter. […] We then fit the data for these two variants to the model shown below, accounting for substrate inhibition.
As before, k+1 was allowed to float in the fitting to give kcat/Km, and k−1 was locked at 0 min^−1, k+2 was allowed to float in the fitting to give kcat, and k−2 was locked at 0 min^−1. k+3 was locked at 10,000 min^−1, and k−3 was locked at 0 min^−1. k+4 and k+6 were locked at 100 μM^−1 min^−1, and k−4 and k−6 were allowed to float in the fitting as linked parameters. k+5 was linked to k+1 and k−5 was locked at 0 min^−1. k−7 was locked at 0 min^−1, and k+7 was locked at 0.00547 min^−1.

[3] = Differential scanning fluorimetry; type: physicochemical
Experimental: Purified Nb4OMT variants in the concentration of 5 μM were prepared in 96-well low-profile PCR plates (ABgene, Thermo Scientific). 10×SYPRO® Orange (Molecular Probes) was added into each well and mixed prior to measurement in an RT-PCR machine (LightCycler 480, Roche). The protein melting experiments were carried out with a continuous temperature acquisition mode using 10 acquisitions per 1° C. in each cycle from 20° C. to 95° C. The melting curves of the Nb4OMT variants were monophasic and Tm values were derived using Boltzmann equation.

B1: H17K: Nb4OMT variant with mutation H17K (protein)
chain: MGASIDDYSLVHKNILKSEDLLKYILETSAYPREHEQLKGLREVTEKHEWSSALVPADEGLFLSMLLKLMNAKRTIEIGVYTGYSLLTTALALPEDGKITAIDVNKSYYEIGLPFIQKAGVEHKINFIESEALPVLDQMLEEMKEEDLYDYAFVDADKSNYANYHERLVKLVRIGGAILYDNTLWYGSVAYPEYPGLHPEEEVARLSFRNLNTFLAADPRVEISQVSIGDGVTICRRLY
modifications: Description of sequence: Improved enzyme variant H17K
[1]
  fluorescent signal relative to the wild-type enzyme: above wild-type in at least one tested condition

B2: H17R: Nb4OMT variant with mutation H17R (protein)
chain: MGASIDDYSLVHKNILRSEDLLKYILETSAYPREHEQLKGLREVTEKHEWSSALVPADEGLFLSMLLKLMNAKRTIEIGVYTGYSLLTTALALPEDGKITAIDVNKSYYEIGLPFIQKAGVEHKINFIESEALPVLDQMLEEMKEEDLYDYAFVDADKSNYANYHERLVKLVRIGGAILYDNTLWYGSVAYPEYPGLHPEEEVARLSFRNLNTFLAADPRVEISQVSIGDGVTICRRLY
modifications: Description of sequence: Improved enzyme variant H17R Mutation
[1]
  fluorescent signal relative to the wild-type enzyme: above wild-type in at least one tested condition

B3: S159E: Nb4OMT variant with mutation S159E (protein)
chain: MGASIDDYSLVHKNILHSEDLLKYILETSAYPREHEQLKGLREVTEKHEWSSALVPADEGLFLSMLLKLMNAKRTIEIGVYTGYSLLTTALALPEDGKITAIDVNKSYYEIGLPFIQKAGVEHKINFIESEALPVLDQMLEEMKEEDLYDYAFVDADKENYANYHERLVKLVRIGGAILYDNTLWYGSVAYPEYPGLHPEEEVARLSFRNLNTFLAADPRVEISQVSIGDGVTICRRLY
modifications: Description of sequence: Improved enzyme variant S159E
[1]
  fluorescent signal relative to the wild-type enzyme: above wild-type in at least one tested condition

B4: V203E: Nb4OMT variant with mutation V203E (protein)
chain: MGASIDDYSLVHKNILHSEDLLKYILETSAYPREHEQLKGLREVTEKHEWSSALVPADEGLFLSMLLKLMNAKRTIEIGVYTGYSLLTTALALPEDGKITAIDVNKSYYEIGLPFIQKAGVEHKINFIESEALPVLDQMLEEMKEEDLYDYAFVDADKSNYANYHERLVKLVRIGGAILYDNTLWYGSVAYPEYPGLHPEEEEARLSFRNLNTFLAADPRVEISQVSIGDGVTICRRLY
modifications: Description of sequence: Improved enzyme variant V203E
[1]
  fluorescent signal relative to the wild-type enzyme: above wild-type in at least one tested condition

B5: E36P-G40E: Nb4OMT variant with mutations E36P and G40E (protein)
chain: MGASIDDYSLVHKNILHSEDLLKYILETSAYPREHPQLKELREVTEKHEWSSALVPADEGLFLSMLLKLMNAKRTIEIGVYTGYSLLTTALALPEDGKITAIDVNKSYYEIGLPFIQKAGVEHKINFIESEALPVLDQMLEEMKEEDLYDYAFVDADKSNYANYHERLVKLVRIGGAILYDNTLWYGSVAYPEYPGLHPEEEVARLSFRNLNTFLAADPRVEISQVSIGDGVTICRRLY
modifications: Description of sequence: Improved enzyme variant E36P-G40E
[1]
  fluorescent signal relative to the wild-type enzyme: above wild-type in at least one tested condition

B6: A53R: Nb4OMT variant with substitution A53R, predicted without docking (protein)
chain: MGASIDDYSLVHKNILHSEDLLKYILETSAYPREHEQLKGLREVTEKHEWSSRLVPADEGLFLSMLLKLMNAKRTIEIGVYTGYSLLTTALALPEDGKITAIDVNKSYYEIGLPFIQKAGVEHKINFIESEALPVLDQMLEEMKEEDLYDYAFVDADKSNYANYHERLVKLVRIGGAILYDNTLWYGSVAYPEYPGLHPEEEVARLSFRNLNTFLAADPRVEISQVSIGDGVTICRRLY
[1]
  fluorescent signal relative to the wild-type enzyme: reduced activity under all tested conditions

B7: E36P/G40E/A53M mutant: Nb4OMT variant with mutations E36P, G40E and A53M (protein)
chain: MGASIDDYSLVHKNILHSEDLLKYILETSAYPREHPQLKELREVTEKHEWSSMLVPADEGLFLSMLLKLMNAKRTIEIGVYTGYSLLTTALALPEDGKITAIDVNKSYYEIGLPFIQKAGVEHKINFIESEALPVLDQMLEEMKEEDLYDYAFVDADKSNYANYHERLVKLVRIGGAILYDNTLWYGSVAYPEYPGLHPEEEVARLSFRNLNTFLAADPRVEISQVSIGDGVTICRRLY
[2]; 3.5 nM enzyme, 500 μM SAM, 37° C., PBS pH 7.5
  kcat: >2 s⁻¹
[2]; calculated by dividing kcat by kcat/Km
  Km: < 83 µM
[2]; steady state kinetic data, highest norbelladine concentration
  substrate inhibition: affected by substrate inhibition
[3]
  increase in Tm relative to the wild-type enzyme: 5.6 °C
[3]; 5 μM protein, SYPRO Orange
  Tm: 58.4 °C
